For the data set, the system named is T1, PhoB (Bacteroides fragilis YCH46), ORF:3d02aa67.
T1 sequence: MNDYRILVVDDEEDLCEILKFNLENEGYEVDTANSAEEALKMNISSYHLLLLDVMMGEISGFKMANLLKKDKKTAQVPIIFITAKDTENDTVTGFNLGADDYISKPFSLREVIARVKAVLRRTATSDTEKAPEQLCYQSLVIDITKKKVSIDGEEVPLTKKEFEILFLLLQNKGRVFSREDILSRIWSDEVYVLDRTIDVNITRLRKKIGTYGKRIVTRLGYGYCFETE
Description: EMSA. Conditions: EMSA: 50 mM Tris-HCl pH 7.5, 50 mM KCl, 10 mM MgCl2, 0.5 mM EDTA, 30 min at 25 C; 5% polyacrylamide gel. PS B and PS E promoter fragments (S55/S56, S57/S58 …).

For “GGAATGGCTGGTAATCAAGTGCCTTGACTGCATCTGCATTGGCTTCTCCGTATTGAAATGATGGAGCAGCATAAGTGACTTGGCATTGAACTCCTGTAACATAATCCGGATTTTCTCCATTAAGATTATATTTAAGAGGTACGTTGGACGATGTGAAGATTAACGACGTCAACGAAGTAGTACCTGTTCCACCGAAAATATTGCCGGTAGCATAAGGTACTTCTATATCGTCGTTATCCGATGCCACTTTGATAAACTTAATATCGATGCGTGATACAATGCGTTCCAGA (double strand) [BF3397 internal fragment]”, the binding result is “no binding”.
